As usually defined, the EC50 is the midpoint of the concentration-response curve.

EC50 data for 20 molecules are collected here from patent publication US20250382352A1 (SCG CELL THERAPY PTE, published 2025).

For test [1], the target named is T1, rhesus CD3ε recombinant protein (rhesus).
T1 construct: also called rhesus CD38 [sic]
The test can be described thus: ELISA, recombinant protein. As to the method: (§1) Anti-HBsAg/anti-CD3 bispecific antibodies generated in Example 1 are analyzed by standard ELISA techniques for their binding properties to HBsAg, human CD3E, and rhesus CD3ε recombinant protein, respectively.
(In general: An ELISA detects its analyte on a solid surface through an enzyme-linked reagent.)

Test [2] addresses T2, HBsAg recombinant protein (hepatitis B virus).
T2 chain: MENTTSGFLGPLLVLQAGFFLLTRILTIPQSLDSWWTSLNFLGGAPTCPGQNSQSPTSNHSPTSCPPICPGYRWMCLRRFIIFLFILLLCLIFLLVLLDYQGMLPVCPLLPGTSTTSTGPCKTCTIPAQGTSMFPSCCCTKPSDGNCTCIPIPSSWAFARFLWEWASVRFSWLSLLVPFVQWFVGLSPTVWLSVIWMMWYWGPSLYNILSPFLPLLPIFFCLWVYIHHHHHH
The test can be described thus: ELISA, recombinant protein. As to the method:
as §1

B1: BsAb2-5-001 (bispecific antibody)
heavy: not shown
light: QTVVTQEPSLTVSPGGTVTLTCRSSTGAVTTSNYANWVQQKPGQAPRALIGGTNKRAPWTPARFSGSLLGDKAALTLSGVQPEDEAEYYCALWYSNLWVFGGGTKLTVLRTVAAPSVFIFPPSDEQLKSGTASVVCLLNNFYPREAKVQWKVDNALQSGNSQESVTEQDSKDSTYSLSSTLTLSKADYEKHKVYACEVTHQGLSSPVTKSFNRGEC
notes: also called VH1VL1
Consider B1, for which the EC50 in test [1] stood at 0.72 nM; in test [2], 0.23 nM.

B2: BsAb2-6-002 (bispecific antibody)
heavy: not shown
light: QTVVTQEPSLTVSPGGTVTLTCRSSTGAVTTSNYANWVQQKPGQAPRGLIGGTNKRAPGTPARFSGSLLGDKAALTLSGVQPEDEAEYYCALWYSNLWVFGGGTKLTVLRTVAAPSVFIFPPSDEQLKSGTASVVCLLNNFYPREAKVQWKVDNALQSGNSQESVTEQDSKDSTYSLSSTLTLSKADYEKHKVYACEVTHQGLSSPVTKSFNRGEC
notes: also called VH1VL2
Regarding B2, the EC50 in test [1] came to 0.14 nM; in test [2] it was 0.46 nM.

B3: BsAb2-6-003 (bispecific antibody)
heavy: not shown
light: QAVVTQEPSLTVSPGGTVTLTCRSSTGAVTTSNYANWVQQKPGQAPRGLIGGTNKRAPGTPARFSGSLLGDKAALTLSGVQPEDEAEYFCALWYSNLWVFGGGTKLTVLRTVAAPSVFIFPPSDEQLKSGTASVVCLLNNFYPREAKVQWKVDNALQSGNSQESVTEQDSKDSTYSLSSTLTLSKADYEKHKVYACEVTHQGLSSPVTKSFNRGEC
notes: also called VH1VL3
As to B3, the EC50 in test [1] stood at 0.17 nM; in test [2] it was 0.47 nM.

B4: BsAb2-6-022 (bispecific antibody)
heavy: not shown
light: QTVVTQEPSLTVSPGGTVTLTCRSSTGAVTTSNYANWVQQKPGQAPRGLIGGTNKRAPGTPARFSGSLLGDKAALTLSGVQPEDEAEYYCALWYSNLWVFGGGTKLTVLRTVAAPSVFIFPPSDEQLKSGTASVVCLLNNFYPREAKVQWKVDNALQSGNSQESVTEQDSKDSTYSLSSTLTLSKADYEKHKVYACEVTHQGLSSPVTKSFNRGEC
notes: also called VH5VL2
Regarding B4, the results for the EC50 in test [1] and in test [2] were 0.23 nM and 0.77 nM, respectively.

B5: BsAb2-6-008 (bispecific antibody)
heavy: not shown
light: QAVVTQEPSLTVSPGGTVTLTCRSSTGAVTTSNYANWVQQKPGQAPRGLIGGTNKRAPGTPARFSGSLLGDKAALTLSGVQPEDEAEYFCALWYSNLWVFGGGTKLTVLRTVAAPSVFIFPPSDEQLKSGTASVVCLLNNFYPREAKVQWKVDNALQSGNSQESVTEQDSKDSTYSLSSTLTLSKADYEKHKVYACEVTHQGLSSPVTKSFNRGEC
notes: also called VH2VL3
As for B5, the EC50 in test [1] amounted to 0.28 nM; in test [2] it was 0.57 nM.

B6: BsAb2-6-023 (bispecific antibody)
heavy: not shown
light: QAVVTQEPSLTVSPGGTVTLTCRSSTGAVTTSNYANWVQQKPGQAPRGLIGGTNKRAPGTPARFSGSLLGDKAALTLSGVQPEDEAEYFCALWYSNLWVFGGGTKLTVLRTVAAPSVFIFPPSDEQLKSGTASVVCLLNNFYPREAKVQWKVDNALQSGNSQESVTEQDSKDSTYSLSSTLTLSKADYEKHKVYACEVTHQGLSSPVTKSFNRGEC
notes: also called VH5VL3
For the molecule B6, the EC50 in test [1] came to 0.26 nM; in test [2], 1.09 nM.

B7: BsAb2-6-007 (bispecific antibody)
heavy: not shown
light: QTVVTQEPSLTVSPGGTVTLTCRSSTGAVTTSNYANWVQQKPGQAPRGLIGGTNKRAPGTPARFSGSLLGDKAALTLSGVQPEDEAEYYCALWYSNLWVFGGGTKLTVLRTVAAPSVFIFPPSDEQLKSGTASVVCLLNNFYPREAKVQWKVDNALQSGNSQESVTEQDSKDSTYSLSSTLTLSKADYEKHKVYACEVTHQGLSSPVTKSFNRGEC
notes: also called VH2VL2
B7: the EC50 stood at 0.19 nM in test [1] and 0.42 nM in test [2].

B8: BsAb2-6-028 (bispecific antibody)
heavy: not shown
light: QAVVTQEPSLTVSPGGTVTLTCRSSTGAVTTSNYANWVQQKPGQAPRGLIGGTNKRAPGTPARFSGSLLGDKAALTLSGVQPEDEAEYFCALWYSNLWVFGGGTKLTVLRTVAAPSVFIFPPSDEQLKSGTASVVCLLNNFYPREAKVQWKVDNALQSGNSQESVTEQDSKDSTYSLSSTLTLSKADYEKHKVYACEVTHQGLSSPVTKSFNRGEC
notes: also called VH6VL3
In the case of B8, the EC50 worked out at 0.21 nM in test [1] and 0.83 nM in test [2].

B9: BsAb2-6-027 (bispecific antibody)
heavy: not shown
light: QTVVTQEPSLTVSPGGTVTLTCRSSTGAVTTSNYANWVQQKPGQAPRGLIGGTNKRAPGTPARFSGSLLGDKAALTLSGVQPEDEAEYYCALWYSNLWVFGGGTKLTVLRTVAAPSVFIFPPSDEQLKSGTASVVCLLNNFYPREAKVQWKVDNALQSGNSQESVTEQDSKDSTYSLSSTLTLSKADYEKHKVYACEVTHQGLSSPVTKSFNRGEC
notes: also called VH6VL2
As for B9, the EC50 is 0.21 nM in test [1] and 0.72 nM in test [2].

B10: BsAb2-5-004 (bispecific antibody)
heavy: not shown
light: QTVVTQEPSFSVSPGGTVTLTCRSSTGAVTTSNYANWYQQTPGQAPRTLIGGTNKRAPGVPDRFSGSILGDKAALTITGAQADDESDYYCALWYSNLWVFGGGTKLTVLRTVAAPSVFIFPPSDEQLKSGTASVVCLLNNFYPREAKVQWKVDNALQSGNSQESVTEQDSKDSTYSLSSTLTLSKADYEKHKVYACEVTHQGLSSPVTKSFNRGEC
notes: also called VH1VL4
Take B10: the half-maximal effective concentration (EC50) in test [2] came out at 0.36 nM.

B11: BsAb2-6-009 (bispecific antibody)
heavy: not shown
light: QTVVTQEPSFSVSPGGTVTLTCRSSTGAVTTSNYANWYQQTPGQAPRTLIGGTNKRAPGVPDRFSGSILGDKAALTITGAQADDESDYYCALWYSNLWVFGGGTKLTVLRTVAAPSVFIFPPSDEQLKSGTASVVCLLNNFYPREAKVQWKVDNALQSGNSQESVTEQDSKDSTYSLSSTLTLSKADYEKHKVYACEVTHQGLSSPVTKSFNRGEC
notes: also called VH2VL4
With B11, in test [2], the EC50 was found to be 0.45 nM.

B12: BsAb2-6-014 (bispecific antibody)
heavy: not shown
light: QTVVTQEPSFSVSPGGTVTLTCRSSTGAVTTSNYANWYQQTPGQAPRTLIGGTNKRAPGVPDRFSGSILGDKAALTITGAQADDESDYYCALWYSNLWVFGGGTKLTVLRTVAAPSVFIFPPSDEQLKSGTASVVCLLNNFYPREAKVQWKVDNALQSGNSQESVTEQDSKDSTYSLSSTLTLSKADYEKHKVYACEVTHQGLSSPVTKSFNRGEC
notes: also called VH3VL4
Turning to B12, in test [2], the half-maximal effective concentration (EC50) was found to be 0.31 nM.

B13: BsAb2-6-004 (bispecific antibody)
heavy: not shown
light: QTVVTQEPSFSVSPGGTVTLTCRSSTGAVTTSNYANWYQQTPGQAPRTLIGGTNKRAPGVPDRFSGSILGDKAALTITGAQADDESDYYCALWYSNLWVFGGGTKLTVLRTVAAPSVFIFPPSDEQLKSGTASVVCLLNNFYPREAKVQWKVDNALQSGNSQESVTEQDSKDSTYSLSSTLTLSKADYEKHKVYACEVTHQGLSSPVTKSFNRGEC
notes: also called VH1VL4
For the molecule B13, the half-maximal effective concentration (EC50) in test [2] stood at 0.43 nM.

B14: BsAb2-6-019 (bispecific antibody)
heavy: not shown
light: QTVVTQEPSFSVSPGGTVTLTCRSSTGAVTTSNYANWYQQTPGQAPRTLIGGTNKRAPGVPDRFSGSILGDKAALTITGAQADDESDYYCALWYSNLWVFGGGTKLTVLRTVAAPSVFIFPPSDEQLKSGTASVVCLLNNFYPREAKVQWKVDNALQSGNSQESVTEQDSKDSTYSLSSTLTLSKADYEKHKVYACEVTHQGLSSPVTKSFNRGEC
notes: also called VH4VL4 (printed VH4VLA)
In the case of B14, the EC50 in test [2] was 0.53 nM.

B15: BsAb2-5-014 (bispecific antibody)
heavy: not shown
light: QTVVTQEPSFSVSPGGTVTLTCRSSTGAVTTSNYANWYQQTPGQAPRTLIGGTNKRAPGVPDRFSGSILGDKAALTITGAQADDESDYYCALWYSNLWVFGGGTKLTVLRTVAAPSVFIFPPSDEQLKSGTASVVCLLNNFYPREAKVQWKVDNALQSGNSQESVTEQDSKDSTYSLSSTLTLSKADYEKHKVYACEVTHQGLSSPVTKSFNRGEC
notes: also called VH3VL4
As for B15, the EC50 in test [2] was determined as 0.2 nM.

B16: BsAb2-5-030 (bispecific antibody)
heavy: not shown
light: QTVVTQEPSFSVSPGGTVTLTCRSSTGAVTTSNYANWVQQTPGQAPRGLIGGTNKRAPGVPDRFSGSILGDKAALTITGAQADDESDYYCALWYSNLWVFGGGTKLTVLRTVAAPSVFIFPPSDEQLKSGTASVVCLLNNFYPREAKVQWKVDNALQSGNSQESVTEQDSKDSTYSLSSTLTLSKADYEKHKVYACEVTHQGLSSPVTKSFNRGEC
notes: also called VH6VL5
In the case of B16, the EC50 turned out to be 0.23 nM in test [1] and 0.15 nM in test [2].

B17: BsAb2-5-025 (bispecific antibody)
heavy: not shown
light: QTVVTQEPSFSVSPGGTVTLTCRSSTGAVTTSNYANWVQQTPGQAPRGLIGGTNKRAPGVPDRFSGSILGDKAALTITGAQADDESDYYCALWYSNLWVFGGGTKLTVLRTVAAPSVFIFPPSDEQLKSGTASVVCLLNNFYPREAKVQWKVDNALQSGNSQESVTEQDSKDSTYSLSSTLTLSKADYEKHKVYACEVTHQGLSSPVTKSFNRGEC
notes: also called VH5VL5
In the case of B17, the figures for the EC50 in test [1] and in test [2] were 0.25 nM and 0.2 nM, respectively.

B18: BsAb2-6-029 (bispecific antibody)
heavy: not shown
light: QTVVTQEPSFSVSPGGTVTLTCRSSTGAVTTSNYANWYQQTPGQAPRTLIGGTNKRAPGVPDRFSGSILGDKAALTITGAQADDESDYYCALWYSNLWVFGGGTKLTVLRTVAAPSVFIFPPSDEQLKSGTASVVCLLNNFYPREAKVQWKVDNALQSGNSQESVTEQDSKDSTYSLSSTLTLSKADYEKHKVYACEVTHQGLSSPVTKSFNRGEC
notes: also called VH6VL4 (printed VH6VLA)
Regarding B18, the EC50 in test [2] worked out at 0.48 nM.

B19: BsAb2-6-024 (bispecific antibody)
heavy: not shown
light: QTVVTQEPSFSVSPGGTVTLTCRSSTGAVTTSNYANWYQQTPGQAPRTLIGGTNKRAPGVPDRFSGSILGDKAALTITGAQADDESDYYCALWYSNLWVFGGGTKLTVLRTVAAPSVFIFPPSDEQLKSGTASVVCLLNNFYPREAKVQWKVDNALQSGNSQESVTEQDSKDSTYSLSSTLTLSKADYEKHKVYACEVTHQGLSSPVTKSFNRGEC
notes: also called VH5VL4
Consider B19, for which the EC50 in test [2] stood at 0.51 nM.

B20: BsAb2-5-005 (bispecific antibody)
heavy: not shown
light: QTVVTQEPSFSVSPGGTVTLTCRSSTGAVTTSNYANWVQQTPGQAPRGLIGGTNKRAPGVPDRFSGSILGDKAALTITGAQADDESDYYCALWYSNLWVFGGGTKLTVLRTVAAPSVFIFPPSDEQLKSGTASVVCLLNNFYPREAKVQWKVDNALQSGNSQESVTEQDSKDSTYSLSSTLTLSKADYEKHKVYACEVTHQGLSSPVTKSFNRGEC
notes: also called VH1VL5
As for B20, the values for the EC50 in test [1] and in test [2] were 0.31 nM and 0.15 nM, respectively.
